What was measured:
[1] = molecular target: human recombinant GAPDH protein (human) (UniProt P04406); test: nano-DSF (thermal shift, Prometheus NT.48); human GAPDH 1 μM with 500 μM dipeptide in 10 mM Tris-HCl pH 7.5, 0.5 M NaCl; thermal ramp 2 °C/min, 20–90 °C; Tm from F350/F330
[2] = molecular target: His6-GAPCP1 (A. thaliana) (UniProt Q9SAJ6); test: nano-DSF (thermal shift, Prometheus NT.48); plant GAPCs 0.2–0.25 mg/ml with 25 μM (GAPC1/2, GAPCP1) or 50 μM (GAPCP2) dipeptide in 1× PBS; thermal ramp 2 °C/min, 20–90 °C; Tm from F350/F330
[3] = molecular target: His6-GAPCP2 (A. thaliana) (UniProt Q5E924); test: as above
Sequence of His6-GAPCP2 (A. thaliana) (Q5E924 67-420): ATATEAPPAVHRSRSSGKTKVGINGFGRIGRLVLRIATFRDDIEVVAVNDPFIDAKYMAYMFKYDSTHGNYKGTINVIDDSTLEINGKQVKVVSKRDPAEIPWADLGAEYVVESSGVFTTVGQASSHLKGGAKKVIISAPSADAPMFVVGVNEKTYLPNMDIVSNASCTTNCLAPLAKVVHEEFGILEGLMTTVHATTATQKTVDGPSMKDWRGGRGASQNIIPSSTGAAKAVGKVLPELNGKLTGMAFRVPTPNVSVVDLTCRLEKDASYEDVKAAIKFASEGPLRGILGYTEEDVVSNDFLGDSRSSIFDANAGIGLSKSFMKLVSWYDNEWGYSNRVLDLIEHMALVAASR

Sequence of His6-GAPCP1 (A. thaliana) (Q9SAJ6 70-422): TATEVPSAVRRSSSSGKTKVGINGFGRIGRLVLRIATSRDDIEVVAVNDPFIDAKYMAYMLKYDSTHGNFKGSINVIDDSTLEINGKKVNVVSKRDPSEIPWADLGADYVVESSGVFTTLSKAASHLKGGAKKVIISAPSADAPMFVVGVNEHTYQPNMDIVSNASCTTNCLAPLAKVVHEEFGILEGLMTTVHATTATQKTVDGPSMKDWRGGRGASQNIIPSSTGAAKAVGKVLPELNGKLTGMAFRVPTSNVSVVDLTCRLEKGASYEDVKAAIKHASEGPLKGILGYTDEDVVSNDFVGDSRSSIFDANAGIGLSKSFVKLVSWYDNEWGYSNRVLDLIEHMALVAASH
Sequence of human recombinant GAPDH protein (human) (P04406 whole entry): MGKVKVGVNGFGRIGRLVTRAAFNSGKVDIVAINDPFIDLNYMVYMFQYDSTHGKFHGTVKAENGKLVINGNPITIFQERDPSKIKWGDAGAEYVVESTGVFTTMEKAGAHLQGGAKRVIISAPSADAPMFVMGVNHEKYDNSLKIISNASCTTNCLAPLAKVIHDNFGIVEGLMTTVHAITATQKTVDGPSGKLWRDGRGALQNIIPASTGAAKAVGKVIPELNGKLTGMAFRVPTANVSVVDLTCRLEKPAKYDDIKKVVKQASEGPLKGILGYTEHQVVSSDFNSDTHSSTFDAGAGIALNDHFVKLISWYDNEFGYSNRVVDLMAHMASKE

Substance dipeptide Tyr–Asp has an increase of Tm with 500 μM Tyr–Asp [1] of 1.1 °C, a decrease of Tm with 25 μM Tyr–Asp [2] of 2 °C and a decrease of Tm with 50 μM Tyr–Asp [3] of 1.5 °C.

From article PMC6093232, “PROMIS, global analysis of PROtein–metabolite interactions using size separation in Arabidopsis thaliana” (The Journal of Biological Chemistry, 2018)
